Reference: patent US20240209092A1 (ADAGENE, published 2024)
Changes are numbered by the printed parent chain.

B1: TY22404 (masked, masking peptide intact) (antibody)
heavy: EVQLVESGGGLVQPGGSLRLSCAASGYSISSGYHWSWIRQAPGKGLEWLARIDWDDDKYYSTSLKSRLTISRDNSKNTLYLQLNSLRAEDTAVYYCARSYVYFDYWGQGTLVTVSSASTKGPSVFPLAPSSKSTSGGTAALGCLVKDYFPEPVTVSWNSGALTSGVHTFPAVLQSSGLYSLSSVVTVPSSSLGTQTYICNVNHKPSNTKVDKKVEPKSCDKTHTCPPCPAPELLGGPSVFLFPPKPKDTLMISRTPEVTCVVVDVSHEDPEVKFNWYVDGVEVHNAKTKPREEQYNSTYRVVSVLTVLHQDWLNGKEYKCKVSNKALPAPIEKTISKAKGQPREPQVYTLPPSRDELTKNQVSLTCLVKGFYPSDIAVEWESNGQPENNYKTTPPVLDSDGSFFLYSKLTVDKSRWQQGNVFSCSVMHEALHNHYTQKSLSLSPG
light: EVGSYPNPSSDCVPYYYACAYSGRSAGGGGTPLGLAGSGGSDIQLTQSPSSLSASVGDRVTITCRASQSVRGRFLAWYQQKPGKAPKLLIYDASNRATGIPSRFSGSGSGTDFTLTISSLQPEDFATYYCQQSSSWPPTFGQGTKVEIKRTVAAPSVFIFPPSDEQLKSGTASVVCLLNNFYPREAKVQWKVDNALQSGNSQESVTEQDSKDSTYSLSSTLTLSKADYEKHKVYACEVTHQGLSSPVTKSFNRGEC
notes: It has the VH and VL of TY21580, with the mask/linker at the N-terminus of the light chain; also called masked TY22404; masking peptide-intact TY22404
B2: activated TY22404 by condition 2 (antibody)
heavy: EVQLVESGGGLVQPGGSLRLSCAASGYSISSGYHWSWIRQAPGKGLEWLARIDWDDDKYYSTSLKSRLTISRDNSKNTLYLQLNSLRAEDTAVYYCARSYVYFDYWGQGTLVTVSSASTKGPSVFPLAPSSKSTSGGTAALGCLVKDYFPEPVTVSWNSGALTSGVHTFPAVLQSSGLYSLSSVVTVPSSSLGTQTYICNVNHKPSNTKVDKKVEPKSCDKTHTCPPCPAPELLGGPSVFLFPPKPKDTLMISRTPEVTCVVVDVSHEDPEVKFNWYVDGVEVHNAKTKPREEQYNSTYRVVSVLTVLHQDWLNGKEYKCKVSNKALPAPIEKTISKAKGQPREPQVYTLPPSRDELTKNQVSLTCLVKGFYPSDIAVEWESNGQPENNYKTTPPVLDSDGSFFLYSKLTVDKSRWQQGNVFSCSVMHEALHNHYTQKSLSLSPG
light: DIQLTQSPSSLSASVGDRVTITCRASQSVRGRFLAWYQQKPGKAPKLLIYDASNRATGIPSRFSGSGSGTDFTLTISSLQPEDFATYYCQQSSSWPPTFGQGTKVEIKRTVAAPSVFIFPPSDEQLKSGTASVVCLLNNFYPREAKVQWKVDNALQSGNSQESVTEQDSKDSTYSLSSTLTLSKADYEKHKVYACEVTHQGLSSPVTKSFNRGEC
notes: IgG1; also called cleaved TY22404; not shown: remnant of the cleavable linker left after cleavage
B3: activated TY22404 by condition 1 (antibody)
heavy: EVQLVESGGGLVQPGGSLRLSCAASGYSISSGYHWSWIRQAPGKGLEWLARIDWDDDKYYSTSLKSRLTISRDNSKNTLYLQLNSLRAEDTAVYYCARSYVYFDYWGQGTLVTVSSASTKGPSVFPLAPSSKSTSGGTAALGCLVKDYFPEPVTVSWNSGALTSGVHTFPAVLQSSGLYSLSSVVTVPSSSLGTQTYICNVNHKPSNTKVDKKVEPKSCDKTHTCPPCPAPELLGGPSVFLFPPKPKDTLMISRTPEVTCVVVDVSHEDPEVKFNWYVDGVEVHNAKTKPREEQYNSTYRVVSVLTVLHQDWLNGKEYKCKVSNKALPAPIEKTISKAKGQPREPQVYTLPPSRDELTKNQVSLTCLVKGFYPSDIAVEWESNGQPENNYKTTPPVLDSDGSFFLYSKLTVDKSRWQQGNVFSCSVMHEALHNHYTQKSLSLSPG
light: B2 light
notes: as for B2

Key:
[1] = molecular target: T1, recombinant human CTLA4 protein (extracellular domain) (human, UniProt P16410 36-161); assay: ELISA, recombinant human CTLA4 extracellular domain coated on the plate, captured antibody detected with HRP-labeled anti-human IgG (Fab specific), absorbance at 450 nm
T1 construct: extracellular domain
T1 sequence (looked up): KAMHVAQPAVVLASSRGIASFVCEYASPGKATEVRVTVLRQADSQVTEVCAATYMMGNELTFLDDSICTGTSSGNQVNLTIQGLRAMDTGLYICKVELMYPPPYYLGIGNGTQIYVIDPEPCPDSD

[2] = molecular target: T2, recombinant rat CTLA4 protein (extracellular domain) (rat, UniProt Q62859 36-161); assay: ELISA, recombinant rat CTLA4 extracellular domain coated on the plate, captured antibody detected with HRP-labeled anti-human IgG (Fab specific), absorbance at 450 nm
T2 sequence: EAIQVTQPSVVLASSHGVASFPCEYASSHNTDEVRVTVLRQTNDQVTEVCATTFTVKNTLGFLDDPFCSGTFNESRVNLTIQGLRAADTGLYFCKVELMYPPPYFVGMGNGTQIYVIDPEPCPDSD

[3] = molecular target: T3, recombinant cynomolgus monkey CTLA4 protein (extracellular domain) (cynomolgus monkey, UniProt G7PL88 36-161); assay: ELISA, recombinant cynomolgus monkey CTLA4 extracellular domain coated on the plate, captured antibody detected with HRP-labeled anti-human IgG (Fab specific), absorbance at 450 nm
T3 sequence: T1 sequence (looked up) with S14N, I18T, L106M

[4] = molecular target: T4, recombinant mouse CTLA4 protein (extracellular domain) (mouse, UniProt P09793 36-161); assay: ELISA, recombinant mouse CTLA4 extracellular domain coated on the plate, captured antibody detected with HRP-labeled anti-human IgG (Fab specific), absorbance at 450 nm
T4 construct: extracellular domain

[5] = molecular target: T5, human CTLA4 expressed on cells (human, UniProt P16410 36-223); assay: cell-based or functional assay
T5 sequence (looked up): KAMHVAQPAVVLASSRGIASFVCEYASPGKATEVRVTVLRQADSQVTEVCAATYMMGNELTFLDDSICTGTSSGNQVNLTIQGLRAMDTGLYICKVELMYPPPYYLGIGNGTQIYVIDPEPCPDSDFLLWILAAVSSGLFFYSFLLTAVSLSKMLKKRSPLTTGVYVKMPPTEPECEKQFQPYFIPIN

[6] = molecular target: T2, recombinant rat CTLA4 protein …; assay: ELISA, CTLA4 extracellular domain coated, HRP anti-human IgG (Fab specific) detection
[7] = molecular target: T1, recombinant human CTLA4 protein …; assay: as above
[8] = molecular target: T4, recombinant mouse CTLA4 protein …; assay: as above
[9] = molecular target: T3, recombinant cynomolgus monkey CTLA4 …; assay: as above
[10] = molecular target: T2, recombinant rat CTLA4 protein …; assay: ELISA, CTLA4 extracellular domain coated; reference masked TY22404
[11] = molecular target: T1, recombinant human CTLA4 protein …; assay: as above
[12] = molecular target: T4, recombinant mouse CTLA4 protein …; assay: as above
[13] = molecular target: T3, recombinant cynomolgus monkey CTLA4 …; assay: as above

Row | Binder | EC50 (read off the curve) [1] [nM] | EC50 (read off the curve) [2] [nM] | EC50 (read off the curve) [3] [nM] | EC50 (read off the curve) [4] [nM] | EC50 (read off the curve) [5] [nM] | EC50 [6] [nM] | EC50 [7] [nM] | EC50 [8] [nM] | EC50 [9] [nM] | fold increased affinity compared to masked TY22404 [10] [fold] | fold increased affinity compared to masked TY22404 [11] [fold] | fold increased affinity compared to masked TY22404 [12] [fold] | fold increased affinity compared to masked TY22404 [13] [fold]
1 | B1 | ~70 | ~30 | ~10 | ~100 | – | – | – | – | – | – | – | – | –
2 | B2 | ~0.3 | ~0.3 | ~0.3 | ~0.3 | ~0.7 | ~0.3 | ~0.3 | ~0.3 | ~0.3 | > 100 | > 250 | > 300 | ~40
3 | B3 | ~0.3 | ~0.3 | ~0.3 | ~0.3 | – | ~0.3 | ~0.3 | ~0.3 | ~0.3 | > 100 | > 250 | > 300 | ~40
